Assay results: patent US20140113854A1

What follows are substances tested against Human α-thrombin (human) (UniProt P00734) (assay: inhibition of thrombin-catalysed hydrolysis of chromogenic substrate S-2238, 37 °C).

| Substance | Ki |
| --- | --- |
| Bivalirudin (peptide) | 2 nM |

These substances were tested against Human α-thrombin (human) (UniProt P00734) (assay: inhibition of thrombin by monovalent active-site moiety; conditions not given at the table).

| Substance | Ki |
| --- | --- |
| Ac-dFPR (peptide) | 170000 nM |
| Bbs-R-(d-Pip)-G-NH2 (peptide) | 2260 nM |
| Bbs-R-(d-Pip)-NH2 (peptide) | 1130 nM |
| Bbs-R-(d-Pip)-W-NH2 (peptide) | 6000 nM |
| Boc-dFPR (peptide) | 4380 nM |
| Dansyl-R-(d-Pip)-Abu-NH2 (peptide) | 820 nM |
| Dansyl-R-(d-Pip)-NH2 (peptide) | 370 nM |
| Dansyl-R-(d-Tic)-NH2 (peptide) | 860 nM |
| H-dFPR (peptide) | 1570 nM |
